For this experiment, the target named is endogenous human glyceraldehyde 3-phosphate dehydrogenase (GAPDH), 3xFLAG-tagged by CRISPR/Cas9 knock-in (human (endogenous in HEK293T)) (UniProt P04406). Nature of the experiment: cryo-EM structure; single-particle cryo-EM of endogenous 3xFLAG-tagged protein purified from HEK293T (anti-FLAG M2, SEC in TBS) on amine-modified graphene oxide grids; GAPDH also from cytosol and nuclei after 8 and 24 h of oxidative stress (1 mM H2O2, 10 mM L-Arg).

In general, stoichiometry N refers to a count of units in the complex or per binding partner.

Sequence of endogenous human glyceraldehyde 3-phosphate dehydrogenase (GAPDH), 3xFLAG-tagged by CRISPR/Cas9 knock-in, P04406 1-335 (enzyme; other documents disagree on this pair) (P04406 whole entry): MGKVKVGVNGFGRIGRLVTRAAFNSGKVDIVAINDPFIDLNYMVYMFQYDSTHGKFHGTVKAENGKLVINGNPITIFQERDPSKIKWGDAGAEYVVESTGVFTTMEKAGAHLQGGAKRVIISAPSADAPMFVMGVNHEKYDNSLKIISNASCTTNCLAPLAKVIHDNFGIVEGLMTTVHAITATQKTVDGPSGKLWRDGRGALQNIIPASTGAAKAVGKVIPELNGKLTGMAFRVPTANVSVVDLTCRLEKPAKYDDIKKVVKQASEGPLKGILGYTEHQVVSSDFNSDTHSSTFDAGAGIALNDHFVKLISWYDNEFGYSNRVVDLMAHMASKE

Take “endogenous human glyceraldehyde 3-phosphate dehydrogenase (GAPDH), 3xFLAG-tagged by CRISPR/Cas9 knock-in, P04406 1-335 (enzyme; other documents disagree on this pair)”: the stoichiometry N was determined as 4.

The record behind these values is article PMC10401002.
